Test results reported in the supplement of paper PMC9170038.

Test system: MS2 coat protein
Assay: apparent KD of MS2 coat protein; designed switch direction (-1 OFF switch, 1 ON switch): -1; higher = weaker reporter binding
Method in brief: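 An oligonucleotide input, 200 uM small-molecule ligand, or no input was present during titration of SNAP-549-labelled MS2 coat protein, which was doubled from 0.7 or 1.5 nM to 3 µM. Designed RNA switches had been transcribed on Illumina chips by stalled E. coli RNA polymerase. Apparent KD per design is the median over clusters of curves fitted to normalised cluster fluorescence.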

[1] = Eterna round: R95, input ligand: microRNA oligo, concentration not stated
[2] = input ligand: microRNA oligo, concentration not stated
[3] = Eterna round: R95, input ligand: FMN 200 uM
[4] = Eterna round: R95, input ligand: none

“AUGCUCAUAGGAUAUAGAUUGAUUCACAUGAGGAUCACCCAUGUAAACUCUACUUUUUAACUAGAAGGAUGUUUUU [JR_E5_Sub018] (puzzle: Exclusion 5)” was tested, and the “apparent KD of MS2 coat protein” value [1] was 25.3 nM.

For “AUGGAGGCAGGAUAUGAGCGUACGAACAUGAGGAUCACCCAUGUGAGAUCUCCUGGUAGCUCAGAAGGGCUAUCUC [Eternabot (Original) Solution 5] (Eterna round: R97, puzzle: Exclusion 5)”, the “apparent KD of MS2 coat protein” value (input ligand: FMN 200 uM) was 253 nM and the “apparent KD of MS2 coat protein” value (input ligand: none) was 67.4 nM.

In the case of “AUGGGUCCUCACGGAGCUACAUGAGGAUCACCCAUGUGGAUUGAGGAUAUCGACUGCCGACGGCUCGAGAAGGCAGUUUACUGU [Ex NG3 #95] (Eterna round: R96, puzzle: Exclusion NG 3)”, the “apparent KD of MS2 coat protein” value (input ligand: FMN 200 uM) is reported as 18.6 nM, the “apparent KD of MS2 coat protein” value [2] is reported as 14.3 nM and the “apparent KD of MS2 coat protein” value (input ligand: none) is reported as 20.2 nM.

With “AUGGUUAGGUCAGGAUAUCGUUGAUUGAAUAGUAUGAUUUACAUGAGGAUCACCCAUGUUAUAUACGAGAAGGGACUUUAUCAU [JR_ExcNG2_Sub023] (Eterna round: R96, puzzle: Exclusion NG 2)” the “apparent KD of MS2 coat protein” value (input ligand: FMN 200 uM) was 9.77 nM, the “apparent KD of MS2 coat protein” value [2] was 8.77 nM and the “apparent KD of MS2 coat protein” value (input ligand: none) was 18.6 nM.

In the case of “AUGUUACAUGAGGAUCACCCAUGUGAGGAUAUGAGUCAGUCACGGUGACGUGGCUGACUCAGAAGGCACUAUGG [JL-ex1-4.39 salish99 mod] (Eterna round: R97, puzzle: Exclusion 1)”, the “apparent KD of MS2 coat protein” value (input ligand: FMN 200 uM) is reported as 146 nM and the “apparent KD of MS2 coat protein” value (input ligand: none) is reported as 279 nM.

For “AUUAAGUGAGGAUAUACAAGAUCGCUUACCGCCAAAGGCGGACAUGAGGAUCACCCAUGUAGAAGGCACAAAUU [Vesoanor] (puzzle: Exclusion 2)”, the “apparent KD of MS2 coat protein” value [1] was 40.9 nM.

“AUUAUAAAGGCAGGAUAUACAUGAGGAUCACCCAUGUAUAUCCGAUAAUAAUAUAAGUGCCUCAUGUAGAAGGGCCAUUAUAUA [Same State Mistake] (Eterna round: R96, puzzle: Exclusion NG 2)” was tested, and the “apparent KD of MS2 coat protein” value (input ligand: FMN 200 uM) was 11.1 nM, the “apparent KD of MS2 coat protein” value [2] was 8.76 nM and the “apparent KD of MS2 coat protein” value (input ligand: none) was 12.4 nM.

“AUUAUAAUAUAGGAUAUCGAAAUAAUUAUUUAACGAGAAGGAUGAACAUGAGGAUCACCCAUGUGGUAUCAUGG [Mat - Exclusion 6 - JL Mod - D33] (puzzle: Exclusion 6)” was tested, and the “apparent KD of MS2 coat protein” value [3] was 160 nM, the “apparent KD of MS2 coat protein” value [1] was 360 nM and the “apparent KD of MS2 coat protein” value [4] was 224 nM.

With “AUUAUAUAGAAAGGAUAUAGAAUAUUAUUUUAACAUGAGGAUCACCCAUGUAACCUUAUGUGUAGCUAGAAGGUUCAUUUAUUA [Title] (Eterna round: R96, puzzle: Exclusion NG 2)” the “apparent KD of MS2 coat protein” value [2] was 52.5 nM.

With “AUUAUAUAGAAAGGAUAUUGAUUAUUAUUUUAACAUGAGGAUCACCCAUGUAGCCUUAUGUAUAACAAGAAGGUUCAUUUAUUA [Title] (Eterna round: R96, puzzle: Exclusion NG 2)” the “apparent KD of MS2 coat protein” value [2] was 58.4 nM.

In the case of “AUUGAUGUUGAGGAUAUGCAUAUAUUUAUAAAAGCAGAAGGCGAUACAUGAGGAUCACCCAUGUUCAUGGAAGU [JR_E6_Sub094] (puzzle: Exclusion 6)”, the “apparent KD of MS2 coat protein” value [3] is reported as 46.7 nM, the “apparent KD of MS2 coat protein” value [1] is reported as 35 nM and the “apparent KD of MS2 coat protein” value [4] is reported as 51.3 nM.

For “AUUGGGUGAGGAUAUCCAUCUGGAUCAGACUAGAUCCUGAUGGAGAAGGCACAUGAGGAUCACCCAUGUGAGUU [Eli 4x 4.34] (Eterna round: R97, puzzle: Exclusion 4)”, the “apparent KD of MS2 coat protein” value (input ligand: FMN 200 uM) was 108 nM and the “apparent KD of MS2 coat protein” value (input ligand: none) was 95.6 nM.

In the case of “AUUGUUGUUGUGAGGAUAUCGUUGAUUUUUUGAAACGAGAAGGCACAUGAGGAUCACCCAUGUUAGUUGUUGGU [JR_BMOE4_Sub057] (puzzle: Brourd's mod of Exclusion 4)”, the “apparent KD of MS2 coat protein” value [1] is reported as 77.3 nM.

“AUUUAAUUUAAUAAGAUCACAUGAGGAUCACCCAUGUAUAUAUAGGAUAUCAGCUCGUGUAGAGCUGAGAAGGAUAUAUACUAU [ExNG3/7-B3] (Eterna round: R96, puzzle: Exclusion NG 3)” was tested, and the “apparent KD of MS2 coat protein” value [2] was 266 nM.
